Experimental data from publication PMC2912413.

Target: alternative Replication Protein A complex (RPA1, RPA4 and RPA3) (human) (UniProt P27694)
Experiment: ELISA

Sequence of alternative Replication Protein A complex (RPA1, RPA4 and RPA3) (human) (P27694 whole entry, chain 1 of 3): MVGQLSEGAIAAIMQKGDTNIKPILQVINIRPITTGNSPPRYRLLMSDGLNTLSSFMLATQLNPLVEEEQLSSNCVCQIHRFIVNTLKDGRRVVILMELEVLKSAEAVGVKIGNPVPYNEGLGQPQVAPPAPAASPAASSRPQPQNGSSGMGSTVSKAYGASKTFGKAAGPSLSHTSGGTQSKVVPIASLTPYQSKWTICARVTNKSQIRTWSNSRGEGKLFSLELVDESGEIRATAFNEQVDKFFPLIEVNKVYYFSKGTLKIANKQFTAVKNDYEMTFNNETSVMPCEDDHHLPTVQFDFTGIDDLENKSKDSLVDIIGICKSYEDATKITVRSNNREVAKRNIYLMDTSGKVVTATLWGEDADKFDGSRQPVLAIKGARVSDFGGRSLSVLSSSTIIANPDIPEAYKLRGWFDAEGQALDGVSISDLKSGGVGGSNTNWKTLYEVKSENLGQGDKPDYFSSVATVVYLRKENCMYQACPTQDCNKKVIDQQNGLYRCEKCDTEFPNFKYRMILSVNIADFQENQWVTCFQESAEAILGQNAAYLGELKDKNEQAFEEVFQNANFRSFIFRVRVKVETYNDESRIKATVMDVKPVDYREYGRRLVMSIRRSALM
Sequence of alternative Replication Protein A complex (RPA1, RPA4 and RPA3) (human) (Q13156 whole entry, chain 2 of 3, further chain): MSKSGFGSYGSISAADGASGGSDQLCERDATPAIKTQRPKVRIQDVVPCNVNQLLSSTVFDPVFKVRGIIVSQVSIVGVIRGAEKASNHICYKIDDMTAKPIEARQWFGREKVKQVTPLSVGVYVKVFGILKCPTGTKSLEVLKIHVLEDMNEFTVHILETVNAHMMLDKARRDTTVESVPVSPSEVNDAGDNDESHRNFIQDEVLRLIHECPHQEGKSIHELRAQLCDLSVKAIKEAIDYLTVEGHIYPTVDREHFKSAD
Sequence of alternative Replication Protein A complex (RPA1, RPA4 and RPA3) (human) (P35244 whole entry, chain 3 of 3, further chain): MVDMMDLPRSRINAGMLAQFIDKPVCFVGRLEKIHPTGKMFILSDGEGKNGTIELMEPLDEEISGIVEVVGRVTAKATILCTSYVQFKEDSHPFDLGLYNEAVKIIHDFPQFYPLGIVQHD

percent decrease of the ELISA interaction compared to RPA: 75%
Substance: human DNA polymerase α/primase complex (from UniProt P09884 1-1462; Q14181 1-598; P49643 1-509; P49642 1-420)
